Data reported in article PMC3162888.

Substrate: N=C(N)NCCCC(NC(=O)c1ccccc1)C(=O)Nc1ccc([N+](=O)[O-])cc1
Experiment: purified protein
Conditions: 20 mM TRIS-HCl, 10 mM CaCl2, pH 8.0, 24°C

Protein | Km (20 nM enzyme) | kcat (20 nM enzyme) | kcat/Km (20 nM enzyme) | Km (50 nM enzyme) | kcat (50 nM enzyme) | kcat/Km (50 nM enzyme)
AaET (Aedes aegypti) (protein) IVGGFQIDIAEVPHQVSLQRSGRHFCGGSIISPRWVLTAAHCTTNTDPAAYTIRAGSTDRTNGGIIVKVKSVIPHPQYNGDTYNYDFSLLELDESIGFSRSIEAIALPEASETVADGAMCTVSGWGDTKNVFEMNTLLRAVNVPSYNQAECAAALVNVVPVTEQMICAGYAAGGKDSCQGDSGGPLVSGDKLVGVVSWGKGCALPNLPGVYARVSTVRQWIREVSEV | 63.0 ± 1.3 µM | 2.03 s⁻¹ | 32300 M⁻¹ s⁻¹ |  |  | 
AaSPVII (Aedes aegypti) (protein) VVGGYEVDVKDIPFQVSLQNTYGHFCGGSIISERWVLTAGHCASPRDHGLKVRVGSSQHASGGQLYKVAKIHQHPQYNPSTIDYDFCLLELEKAITFSEVSQSVDLPKLNDPVQDGTLLQVSGWGYTQNPSESRDVLRATNVPAVSQKECSRAYQGTNAVTDRMVCAGYKEGGKDSCQGDSGGPLVEGNTLVGVVSWGVGCAQAGYPGVYSRVAAVRDWVAEVSGV |  |  |  | 19.2 ± 1.0 µM | 0.35 s⁻¹ | 18500 M⁻¹ s⁻¹
